± gives the standard deviation of the averaged measurements.
B1: library; a variant is named by its letters at N, in order (parent)
chain: GCUGUCACCGAGAAACUGUGAAGUAUAUCUUAAACCUGGGCACUUAAAAGAUAUAUGGAGUUAGUAGUGCAACCUGCUCGGUCUGAUGAGUCCNNNNNNGGACGAAACAGC

Legend:
cyclic di-GMP [1] = variants of: B1; assay: normalized RNA/DNA level without ligand (relative to sTRSVctl = 100) (log10 (% of sTRSVctl)); HEK293T; ligand: cyclic di-GMP (c-di-GMP-II aptamer); higher = less ribozyme self-cleavage, higher mRNA level; settings: reporter: mCherry (pCS4076), ligand present: no
Outline: (§1)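 Only sequences with at least 100 DNA reads were analyzed, from HEK293T cells transfected with 4 µg per 6-well well of ribozyme switch library plasmids 72 h before RNA extraction with EDTA. Any ligand was added 1 h before transfection. RNA level was defined as RNA over DNA reads, normalized to a spiked-in non-cleaving sequence or to the top sequences, then scaled and log-transformed. The top set was 25 sequences, and the scaling was ×100 followed by log10.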

cyclic di-GMP [2] = variants of: B1; assay: normalized RNA/DNA level with ligand (relative to sTRSVctl = 100) (log10 (% of sTRSVctl)); HEK293T; ligand: cyclic di-GMP (c-di-GMP-II aptamer); ligand concentration (+) RNA-Seq: 1 mM; higher = less ribozyme self-cleavage, higher mRNA level; settings: reporter: mCherry (pCS4076), ligand present: yes
Outline: as §1

| Variant | normalized RNA/DNA level without ligand (log10) (cyclic di-GMP [1]) | normalized RNA/DNA level with ligand (log10) (cyclic di-GMP [2]) |
| --- | --- | --- |
| GCUGUCACCGAGAAACUGUGAAGUAUAUCUUAAACCUGGGCACUUAAAAGAUAUAUGGAGUUAGUAGUGCAACCUGCUCGGUCUGAUGAGUCCGGUUCUGGACGAAACAGC [GGUUCU] | 1.66 ± 0.044 | 1.77 ± 0.083 |
| GCUGUCACCGAGAAACUGUGAAGUAUAUCUUAAACCUGGGCACUUAAAAGAUAUAUGGAGUUAGUAGUGCAACCUGCUCGGUCUGAUGAGUCCGGUUCGGGACGAAACAGC [GGUUCG] | 1.7 ± 0.046 | 1.88 ± 0.075 |
| GCUGUCACCGAGAAACUGUGAAGUAUAUCUUAAACCUGGGCACUUAAAAGAUAUAUGGAGUUAGUAGUGCAACCUGCUCGGUCUGAUGAGUCCGGUUCAGGACGAAACAGC [GGUUCA] | 1.6 ± 0.043 | 1.73 ± 0.12 |
| GCUGUCACCGAGAAACUGUGAAGUAUAUCUUAAACCUGGGCACUUAAAAGAUAUAUGGAGUUAGUAGUGCAACCUGCUCGGUCUGAUGAGUCCAGUUGGGGACGAAACAGC [AGUUGG] | 1.63 ± 0.043 | 1.8 ± 0.11 |
| GCUGUCACCGAGAAACUGUGAAGUAUAUCUUAAACCUGGGCACUUAAAAGAUAUAUGGAGUUAGUAGUGCAACCUGCUCGGUCUGAUGAGUCCAGUUGAGGACGAAACAGC [AGUUGA] | 1.57 ± 0.04 | 1.75 ± 0.1 |
| GCUGUCACCGAGAAACUGUGAAGUAUAUCUUAAACCUGGGCACUUAAAAGAUAUAUGGAGUUAGUAGUGCAACCUGCUCGGUCUGAUGAGUCCAGUUGCGGACGAAACAGC [AGUUGC] | 1.67 ± 0.029 | 1.82 ± 0.12 |
| GCUGUCACCGAGAAACUGUGAAGUAUAUCUUAAACCUGGGCACUUAAAAGAUAUAUGGAGUUAGUAGUGCAACCUGCUCGGUCUGAUGAGUCCCGUUCGGGACGAAACAGC [CGUUCG] | 1.81 ± 0.095 | 1.9 ± 0.16 |
| GCUGUCACCGAGAAACUGUGAAGUAUAUCUUAAACCUGGGCACUUAAAAGAUAUAUGGAGUUAGUAGUGCAACCUGCUCGGUCUGAUGAGUCCAGUUCAGGACGAAACAGC [AGUUCA] | 1.62 ± 0.051 | 1.8 ± 0.061 |
| GCUGUCACCGAGAAACUGUGAAGUAUAUCUUAAACCUGGGCACUUAAAAGAUAUAUGGAGUUAGUAGUGCAACCUGCUCGGUCUGAUGAGUCCAGUUCGGGACGAAACAGC [AGUUCG] | 1.69 ± 0.021 | 1.79 ± 0.11 |
| GCUGUCACCGAGAAACUGUGAAGUAUAUCUUAAACCUGGGCACUUAAAAGAUAUAUGGAGUUAGUAGUGCAACCUGCUCGGUCUGAUGAGUCCAGUUCUGGACGAAACAGC [AGUUCU] | 1.69 ± 0.027 | 1.87 ± 0.056 |
| GCUGUCACCGAGAAACUGUGAAGUAUAUCUUAAACCUGGGCACUUAAAAGAUAUAUGGAGUUAGUAGUGCAACCUGCUCGGUCUGAUGAGUCCAGUUCCGGACGAAACAGC [AGUUCC] | 1.8 ± 0.043 | 1.9 ± 0.084 |
| GCUGUCACCGAGAAACUGUGAAGUAUAUCUUAAACCUGGGCACUUAAAAGAUAUAUGGAGUUAGUAGUGCAACCUGCUCGGUCUGAUGAGUCCCGUUGAGGACGAAACAGC [CGUUGA] | 1.52 ± 0.043 | 1.71 ± 0.14 |
| GCUGUCACCGAGAAACUGUGAAGUAUAUCUUAAACCUGGGCACUUAAAAGAUAUAUGGAGUUAGUAGUGCAACCUGCUCGGUCUGAUGAGUCCCGUUGCGGACGAAACAGC [CGUUGC] | 1.78 ± 0.027 | 1.88 ± 0.071 |
| GCUGUCACCGAGAAACUGUGAAGUAUAUCUUAAACCUGGGCACUUAAAAGAUAUAUGGAGUUAGUAGUGCAACCUGCUCGGUCUGAUGAGUCCCGUUGGGGACGAAACAGC [CGUUGG] | 1.737 ± 0.0074 | 1.85 ± 0.072 |
| GCUGUCACCGAGAAACUGUGAAGUAUAUCUUAAACCUGGGCACUUAAAAGAUAUAUGGAGUUAGUAGUGCAACCUGCUCGGUCUGAUGAGUCCCGUUGUGGACGAAACAGC [CGUUGU] | 1.76 ± 0.018 | 1.86 ± 0.1 |
| GCUGUCACCGAGAAACUGUGAAGUAUAUCUUAAACCUGGGCACUUAAAAGAUAUAUGGAGUUAGUAGUGCAACCUGCUCGGUCUGAUGAGUCCUGUUCCGGACGAAACAGC [UGUUCC] | 1.84 ± 0.052 | 1.94 ± 0.14 |
| GCUGUCACCGAGAAACUGUGAAGUAUAUCUUAAACCUGGGCACUUAAAAGAUAUAUGGAGUUAGUAGUGCAACCUGCUCGGUCUGAUGAGUCCUGUUCAGGACGAAACAGC [UGUUCA] | 1.71 ± 0.066 | 1.81 ± 0.12 |
| GCUGUCACCGAGAAACUGUGAAGUAUAUCUUAAACCUGGGCACUUAAAAGAUAUAUGGAGUUAGUAGUGCAACCUGCUCGGUCUGAUGAGUCCUGUUCUGGACGAAACAGC [UGUUCU] | 1.75 ± 0.051 | 1.88 ± 0.13 |
| GCUGUCACCGAGAAACUGUGAAGUAUAUCUUAAACCUGGGCACUUAAAAGAUAUAUGGAGUUAGUAGUGCAACCUGCUCGGUCUGAUGAGUCCUGUUCGGGACGAAACAGC [UGUUCG] | 1.8 ± 0.023 | 1.89 ± 0.12 |
| GCUGUCACCGAGAAACUGUGAAGUAUAUCUUAAACCUGGGCACUUAAAAGAUAUAUGGAGUUAGUAGUGCAACCUGCUCGGUCUGAUGAGUCCGGUUAUGGACGAAACAGC [GGUUAU] | 1.64 ± 0.049 | 1.8 ± 0.2 |
| GCUGUCACCGAGAAACUGUGAAGUAUAUCUUAAACCUGGGCACUUAAAAGAUAUAUGGAGUUAGUAGUGCAACCUGCUCGGUCUGAUGAGUCCUGUUGGGGACGAAACAGC [UGUUGG] | 1.71 ± 0.04 | 1.86 ± 0.076 |
| GCUGUCACCGAGAAACUGUGAAGUAUAUCUUAAACCUGGGCACUUAAAAGAUAUAUGGAGUUAGUAGUGCAACCUGCUCGGUCUGAUGAGUCCUGUUGCGGACGAAACAGC [UGUUGC] | 1.75 ± 0.026 | 1.89 ± 0.14 |
| GCUGUCACCGAGAAACUGUGAAGUAUAUCUUAAACCUGGGCACUUAAAAGAUAUAUGGAGUUAGUAGUGCAACCUGCUCGGUCUGAUGAGUCCAGUUAUGGACGAAACAGC [AGUUAU] | 1.67 ± 0.06 | 1.86 ± 0.11 |
| GCUGUCACCGAGAAACUGUGAAGUAUAUCUUAAACCUGGGCACUUAAAAGAUAUAUGGAGUUAGUAGUGCAACCUGCUCGGUCUGAUGAGUCCGGUUGCGGACGAAACAGC [GGUUGC] | 1.7 ± 0.018 | 1.87 ± 0.021 |
| GCUGUCACCGAGAAACUGUGAAGUAUAUCUUAAACCUGGGCACUUAAAAGAUAUAUGGAGUUAGUAGUGCAACCUGCUCGGUCUGAUGAGUCCGGUUGAGGACGAAACAGC [GGUUGA] | 1.57 ± 0.15 | 1.74 ± 0.035 |
| GCUGUCACCGAGAAACUGUGAAGUAUAUCUUAAACCUGGGCACUUAAAAGAUAUAUGGAGUUAGUAGUGCAACCUGCUCGGUCUGAUGAGUCCUGUUAUGGACGAAACAGC [UGUUAU] | 1.6763 ± 0.0012 | 1.84 ± 0.14 |

From the supplement of paper PMC6757056
